For two substances, IC50 (µg/mL), IL-6 induced TF-1 proliferation results are on record in patent publication US20220105163A1.

A value given as a limit tells only on which side of the number the result lay.

In experiment [1] the target is Recombinant human IL-6 (human) (UniProt P05231). In words: cell-based or functional assay.
In experiment [2] the target is IL-6 receptor on TF-1 cells (human) (UniProt P08887). Kind of experiment: cell-based or functional assay.
Chain of IL-6 receptor on TF-1 cells (human) (P08887 20-468): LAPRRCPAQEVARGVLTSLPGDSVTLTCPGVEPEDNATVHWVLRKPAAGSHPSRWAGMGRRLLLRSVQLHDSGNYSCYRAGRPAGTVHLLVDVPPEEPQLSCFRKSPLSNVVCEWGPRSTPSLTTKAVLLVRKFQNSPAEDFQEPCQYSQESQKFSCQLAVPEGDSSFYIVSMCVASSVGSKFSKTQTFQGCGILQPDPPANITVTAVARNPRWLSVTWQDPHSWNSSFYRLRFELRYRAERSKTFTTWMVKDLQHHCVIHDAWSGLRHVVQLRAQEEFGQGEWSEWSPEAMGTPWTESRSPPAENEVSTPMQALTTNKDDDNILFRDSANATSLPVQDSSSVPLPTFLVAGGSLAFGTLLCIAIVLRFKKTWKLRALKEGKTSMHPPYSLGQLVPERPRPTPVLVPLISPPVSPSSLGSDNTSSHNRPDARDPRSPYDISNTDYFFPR

Chain of Recombinant human IL-6 (human) (P05231 30-212 limits assumed): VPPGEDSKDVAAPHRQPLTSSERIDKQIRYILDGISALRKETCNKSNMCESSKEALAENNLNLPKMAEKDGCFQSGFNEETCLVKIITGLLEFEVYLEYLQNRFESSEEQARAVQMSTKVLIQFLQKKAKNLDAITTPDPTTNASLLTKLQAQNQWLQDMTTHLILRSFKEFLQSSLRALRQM

Regarding Non GP IgG (antibody), the IC50 (µg/mL), IL-6 induced TF-1 proliferation in experiment [1] was over 100 µg/mL.
For Tocilizumab (antibody), the IC50 (µg/mL), IL-6 induced TF-1 proliferation in experiment [2] came to 0.365 µg/mL.
